Reference: publication PMC3696691, “Zinc-induced Self-association of Complement C3b and Factor H” (The Journal of Biological Chemistry, 2013)

Biological target: T1, C3b (human, UniProt P01024 23-667; P01024 749-1663, free SH group of the C3b thioester blocked with 20 mM iodoacetamide)
T1 construct: Complement C3 beta chain, human; Complement C3b alpha' chain, human: the alpha chain without the ANA/C3a domain; here cut by trypsin; 12 domains; calculated mass 179.3 kDa; also called active C3b; source: made from C3 purified from human plasma by trypsin (1% w/w, 120 s, 37 °C), iodoacetamide added, purified on Superose 6
Test: AUC; sedimentation velocity, 50,000 rpm, 20 °C; 1:1 mixture of 5.5 uM C3b and 5.5 uM FH incubated at 4 °C overnight; no zinc
Details: both partners purified

B1: complement Factor H (FH), wild-type (natural protein, human, UniProt P08603 19-1231, looked up)
chain: EDCNELPPRRNTEILTGSWSDQTYPEGTQAIYKCRPGYRSLGNVIMVCRKGEWVALNPLRKCQKRPCGHPGDTPFGTFTLTGGNVFEYGVKAVYTCNEGYQLLGEINYRECDTDGWTNDIPICEVVKCLPVTAPENGKIVSSAMEPDREYHFGQAVRFVCNSGYKIEGDEEMHCSDDGFWSKEKPKCVEISCKSPDVINGSPISQKIIYKENERFQYKCNMGYEYSERGDAVCTESGWRPLPSCEEKSCDNPYIPNGDYSPLRIKHRTGDEITYQCRNGFYPATRGNTAKCTSTGWIPAPRCTLKPCDYPDIKHGGLYHENMRRPYFPVAVGKYYSYYCDEHFETPSGSYWDHIHCTQDGWSPAVPCLRKCYFPYLENGYNQNYGRKFVQGKSIDVACHPGYALPKAQTTVTCMENGWSPTPRCIRVKTCSKSSIDIENGFISESQYTYALKEKAKYQCKLGYVTADGETSGSITCGKDGWSAQPTCIKSCDIPVFMNARTKNDFTWFKLNDTLDYECHDGYESNTGSTTGSIVCGYNGWSDLPICYERECELPKIDVHLVPDRKKDQYKVGEVLKFSCKPGFTIVGPNSVQCYHFGLSPDLPICKEQVQSCGPPPELLNGNVKEKTKEEYGHSEVVEYYCNPRFLMKGPNKIQCVDGEWTTLPVCIVEESTCGDIPELEHGWAQLSSPPYYYGDSVEFNCSESFTMIGHRSITCIHGVWTQLPQCVAIDKLKKCKSSNLIILEEHLKNKKEFDHNSNIRYRCRGKEGWIHTVCINGRWDPEVNCSMAQIQLCPPPPQIPNSHNMTTTLNYRDGEKVSVLCQENYLIQEGEEITCKDGRWQSIPLCVEKIPCSQPPQIEHGTINSSRSSQESYAHGTKLSYTCEGGFRISEENETTCYMGKWSSPPQCEGLPCKSPPEISHGVVAHMSDSYQYGEEVTYKCFEGFGIDGPAIAKCLGEKWSHPPSCIKTDCLSLPSFENAIPMGEKKDVYKAGEQVTYTCATYYKMDGASNVTCINSRWTGRPTCRDTSCVNPPTVQNAYIVSRQMSKYPSGERVRYQCRSPYEMFGDEEVMCLNGNWTEPPQCKDSTGKCGPPPPIDNGDITSFPLSVYAPASSVEYQCQNLYQLEGNKRITCRNGQWSEPPKCLHPCVISREIMENYNIALRWTAKQKLYSRTGESVEFVCKRGYRLSSRSHTLRTTCWDGKLEYPTCAKR
notes: Complement factor H, human, 20 SCR domains (SCR-1/20); Calculated mass 154.4 kDa; source: gel filtration
  stoichiometry N: 1
